Data as given in patent publication US20230002480A1.

Columns and labels:
Assay in all cases: cell-based or functional assay
[1] = molecular target: HIV-1 Env of pseudovirus 6952.v1.c20 (HIV-1)
[2] = molecular target: HIV-1 Env of pseudovirus Q23.17 (HIV-1)
[3] = molecular target: HIV-1 Env of pseudovirus ZM53M.PB12 (HIV-1)
[4] = molecular target: HIV-1 Env of pseudovirus CAP45.2.00.G3 (HIV-1)
[5] = molecular target: HIV-1 Env of pseudovirus Ce1086_B2 (HIV-1)
[6] = molecular target: HIV-1 Env of pseudovirus RHPA4259.7 (HIV-1)
[7] = molecular target: HIV-1 Env of pseudovirus 3415.v1.c1 (HIV-1)
[8] = molecular target: MuLV envelope (negative control pseudovirus) (MuLV)

Substance	IC50, titer in TZM.bl cells [1]	IC80, titer in TZM.bl cells [1]	IC50 [2]	IC80 [2]	IC50 [3]	IC80 [3]	IC50 [4]	IC80 [4]	IC50 [5]	IC80 [5]	IC50 [6]	IC80 [6]	neutralization IC50 [2]	neutralization IC80 [2]	neutralization IC50 [3]	neutralization IC80 [3]	neutralization IC50 [4]	neutralization IC80 [4]	neutralization IC50 [7]	neutralization IC80 [7]	further results
PGDM1400 (antibody)	0.501 µg/mL	11.8 µg/mL	< 0.001 µg/mL	0.003 µg/mL	0.002 µg/mL	0.011 µg/mL	< 0.001 µg/mL	0.002 µg/mL	> 50 µg/mL	> 50 µg/mL	0.447 µg/mL	2.19 µg/mL									
3BNC117 (antibody)	0.15 µg/mL	0.75 µg/mL											0.005 µg/mL	0.02 µg/mL	0.21 µg/mL	0.85 µg/mL	3.88 µg/mL	> 50 µg/mL	0.17 µg/mL	0.47 µg/mL	neutralization IC50 [5]: 0.09 µg/mL; neutralization IC80 [5]: 0.31 µg/mL; neutralization IC50 [6]: < 0.09 µg/mL; neutralization IC80 [6]: < 0.09 µg/mL
NIH 45-46 (antibody)	0.02 µg/mL	0.07 µg/mL											0.14 µg/mL	0.6 µg/mL	0.65 µg/mL	0.65 µg/mL	> 50 µg/mL	> 50 µg/mL	0.07 µg/mL	0.07 µg/mL	neutralization IC50 [5]: 0.04 µg/mL; neutralization IC80 [5]: 0.28 µg/mL; neutralization IC50 [6]: < 0.05 µg/mL; neutralization IC80 [6]: < 0.05 µg/mL
N49P6 (antibody)			0.052 µg/mL	0.185 µg/mL	0.538 µg/mL	1.71 µg/mL	21.7 µg/mL	> 50 µg/mL	0.581 µg/mL	4.09 µg/mL	0.117 µg/mL	0.443 µg/mL									IC50 [1]: 16.9 µg/mL; IC80 [1]: > 50 µg/mL; MPI [1]: 78; MPI [2]: 100; MPI [3]: 100; MPI [4]: 75; IC50 [7]: 0.188 µg/mL; IC80 [7]: 0.648 µg/mL; MPI [7]: 100; MPI [5]: 98; MPI [6]: 100; IC50 [8]: > 50 µg/mL; IC80 [8]: > 50 µg/mL; MPI [8]: 0
PGT128 (antibody)	> 50 µg/mL	> 50 µg/mL	0.009 µg/mL	0.024 µg/mL	> 50 µg/mL	> 50 µg/mL	> 50 µg/mL	> 50 µg/mL	> 50 µg/mL	> 50 µg/mL	0.026 µg/mL	0.109 µg/mL									
PGT151 (antibody)	49.2 µg/mL	> 50 µg/mL	0.007 µg/mL	0.045 µg/mL	> 50 µg/mL	> 50 µg/mL	0.007 µg/mL	> 50 µg/mL	2.65 µg/mL	> 50 µg/mL	0.006 µg/mL	0.033 µg/mL									
